Laboratory results taken from paper PMC8105298.

Target: p62 (UniProt Q13501)
Test: co-IP of stathmin-GFP with Flag-p62
Conditions: reference: wild type stathmin-GFP; sites S63

binding against the reference: weaker
Substance: stathmin (from UniProt P16949) S63A stathmin-GFP
